Measured values: patent US20190203227A1 (WILLIAM MARSH RICE UNIVERSITY, published 2019)

B1: PhyB917-His6 (other)
chain: MGASGVSGVGGSGGGRGGGRGGEEEPSSSHTPNNRRGGEQAQSSGTKSLRPRSNTESMSKAIQQYTVDARLHAVFEQSGESGKSFDYSQSLKTTTYGSSVPEQQITAYLSRIQRGGYIQPFGCMIAVDESSFRIIGYSENAREMLGIMPQSVPTLEKPEILAMGTDVRSLFTSSSSILLERAFVAREITLLNPVWIHSKNTGKPFYAILHRIDVGVVIDLEPARTEDPALSIAGAVQSQKLAVRAISQLQALPGGDIKLLCDTVVESVRDLTGYDRVMVYKFHEDEHGEVVAESKRDDLEPYIGLHYPATDIPQASRFLFKQNRVRMIVDCNATPVLVVQDDRLTQSMCLVGSTLRAPHGCHSQYMANMGSIASLAMAVIINGNEDDGSNVASGRSSMRLWGLVVCHHTSSRCIPFPLRYACEFLMQAFGLQLNMELQLALQMSEKRVLRTQTLLCDMLLRDSPAGIVTQSPSIMDLVKCDGAAFLYHGKYYPLGVAPSEVQIKDVVEWLLANHADSTGLSTDSLGDAGYPGAAALGDAVCGMAVAYITKRDFLFWFRSHTAKEIKWGGAKHHPEDKDDGQRMHPRSSFQAFLEVVKSRSQPWETAEMDAIHSLQLILRDSFKESEAAMNSKVVDGVVQPCRDMAGEQGIDELGAVAREMVRLIETATVPIFAVDAGGCINGWNAKIAELTGLSVEEAMGKSLVSDLIYKENEATVNKLLSRALRGDEEKNVEVKLKTFSPELQGKAVFVVVNACSSKDYLNNIVGVCFVGQDVTSQKIVMDKFINIQGDYKAIVHSPNPLIPPIFAADENTCCLEWNMAMEKLTGWSRSEVIGKMIVGEVFGSCCMLKGPDALTKFMIVLHNAIGGQDTDKFPFPFFDRNGKFVQALLTANKRVSLEGKVIGAFCFLQIPSPELQQALAVGGSHHHHHH
modifications: phycocyanobilin (PCB) chromophore bound after incubation with 5 uM PCB (residue not stated)
notes: Light-switchable phytochrome B fragment, immobilised on a Ni2+ column
B2: PhyB651-His6 (other)
chain: MVSGVGGSGGGRGGGRGGEEEPSSSHTPNNRRGGEQAQSSGTKSLRPRSNTESMSKAIQQYTVDARLHAVFEQSGESGKSFDYSQSLKTTTYGSSVPEQQITAYLSRIQRGGYIQPFGCMIAVDESSFRIIGYSENAREMLGIMPQSVPTLEKPEILAMGTDVRSLFTSSSSILLERAFVAREITLLNPVWIHSKNTGKPFYAILHRIDVGVVIDLEPARTEDPALSIAGAVQSQKLAVRAISQLQALPGGDIKLLCDTVVESVRDLTGYDRVMVYKFHEDEHGEVVAESKRDDLEPYIGLHYPATDIPQASRFLFKQNRVRMIVDCNATPVLVVQDDRLTQSMCLVGSTLRAPHGCHSQYMANMGSIASLAMAVIINGNEDDGSNVASGRSSMRLWGLVVCHHTSSRCIPFPLRYACEFLMQAFGLQLNMELQLALQMSEKRVLRTQTLLCDMLLRDSPAGIVTQSPSIMDLVKCDGAAFLYHGKYYPLGVAPSEVQIKDVVEWLLANHADSTGLSTDSLGDAGYPGAAALGDAVCGMAVAYITKRDFLFWFRSHTAKEIKWGGAKHHPEDKDDGQRMHPRSSFQAFLEVVKSRSQPWETAEMDAIHSLQLILRDSFKESEAAMNSKVVDGVVQPCRDMAGEQGIDELGAHHHHHH
modifications: phycocyanobilin (PCB) chromophore bound after incubation with 5 uM PCB (residue not stated)

Biological target: T1, wild-type recombinant adeno-associated virus serotype 2 (adeno-associated virus serotype 2, UniProt P03135 1-735; P03135 139-735; P03135 203-735)
T1 construct: Assembled virus capsid; Control virus without PIF6; also called wtAAV2; wtAAV
Experiment: Ni2+ column capture with immobilised PhyB, qPCR of viral genomes, far-red (730 nm) light

Binder	binding result
B1	no binding
B2	no binding
